The values below come from the supplement of paper PMC10724198.

± gives the standard deviation of the averaged measurements.
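Further: PSI is a weighted mean of sequencing reads over stability bins, variants kept only with over 10 reads, mCherry proximal and sfGFP distal, peptide attached via GGGS linker.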

This data set has as its system Saccharomyces cerevisiae. Put plainly: protein stability index of tFT-peptide fusion (C-terminal peptide) (PSI (0-1 scale)); higher = more stable (slower turnover). The settings on record: genetic background: wild type; temperature: 30 C. On the procedure: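 Multiplexed protein stability (MPS) profiling in S. cerevisiae. Random 12-aa peptides (tFT-X12 library) are fused to the C-terminus of a sfGFP-mCherry tandem fluorescent timer, after mCherry and a GGGS linker. Cells are FACS-sorted into 8 mCherry/sfGFP bins and deep-sequenced. The protein stability index (PSI) is the read-weighted bin average, scaled from 0 (unstable) to 1 (stable). Only peptides with >10 reads are reported; cells were grown at 30 °C in SC-His with glucose.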
In turn, GKMLSRPRKTEN displayed a protein stability index of 0.711 ± 0.03.
Regarding GKNKSKKEKKEK, the protein stability index stood at 0.668 ± 0.032.
GKRETQVEEGAR came in with a protein stability index of 0.765 ± 0.11.
On to GKRYEKVGVEWW, for which the protein stability index stood at 0.765 ± 0.12.
The sequence GKTQLIKNIQNI gave a protein stability index of 0.568 ± 0.023.
GKVCGRAEYPQT showed a protein stability index of 0.719 ± 0.035.
Turning to GKYEALGRFSPG, the protein stability index worked out at 0.71 ± 0.015.
In turn, GKYQQGFQKVTR registered a protein stability index of 0.668 ± 0.025.
In turn, GLAAGGAVMPPL displayed a protein stability index of 0.7188 ± 0.0064.
For the sequence GLAELKSYDGEG, the protein stability index amounted to 0.696 ± 0.034.
Next, GLAQRAIKNRHR: 0.679 ± 0.11; GLARSICRNYGL: 0.706 ± 0.014.
GLASLTGVPRCW returned a protein stability index of 0.723 ± 0.027.
The sequence GLCACTSFLVSW showed a protein stability index of 0.697 ± 0.028.
Sequence GLCAVWSGAGRC gave a protein stability index of 0.7 ± 0.037.
In the case of GLCSEETPALFY it was 0.7173 ± 0.0043; in that of GLDDLMPGRVLW, 0.666 ± 0.015; in that of GLDEGCRGGEEV, 0.673 ± 0.0092.
In the case of GLDNNKCTEKKI it was 0.665 ± 0.13; in that of GLEPSGLSGGSW, 0.672 ± 0.041.
Next, GLGEWGGRGVCG: 0.692 ± 0.015; GLGGRGGAVGEW: 0.67252 ± 0.0004; GLGVMGVGCVGS: 0.653 ± 0.054.
For the sequence GLGVVSVWSGGL, the protein stability index worked out at 0.703 ± 0.044.
Sequence GLLGVRVVAGLG had a protein stability index of 0.625 ± 0.032.
Turning to GLMSVRYSGTGV, the protein stability index is 0.6743 ± 0.006.
In turn, GLNTKAQSRIPM had a protein stability index of 0.742 ± 0.018.
In the case of GLPPLAMPALSI it was 0.72 ± 0.057; in that of GLPPLLSPVPLR, 0.646 ± 0.057; in that of GLPSHPAPPSTN, 0.657 ± 0.11.
With GLPTFLTDSSFW, the protein stability index was 0.725 ± 0.039.
Next, GLPWRRVGGGAG: 0.644 ± 0.013; GLRCSRVSFFFW: 0.64 ± 0.039; GLRRWLSTAMRR: 0.7339 ± 0.0033.
In the case of GLSALVVCPSWG it was 0.65062 ± 0.00034; in that of GLSRYLTCNNLV, 0.674 ± 0.0075.
In the case of GLSVSGLWGVFG it was 0.629 ± 0.2; in that of GLTGAATVPHSA, 0.732 ± 0.013.
Consider GLVRGGCGTVGG, for which the protein stability index was 0.774 ± 0.18.
As to GLWCVGGGAVGV, the protein stability index turned out to be 0.6818 ± 0.004.
For GLYTRLYIPRPC, the protein stability index was 0.739 ± 0.033.
Next, GMRRGGGWCRGW: 0.674 ± 0.027; GMTYEKIKNVIE: 0.651 ± 0.025; GNAGGFRSLISW: 0.663 ± 0.065.
Regarding GNGENKVIVRKS, the protein stability index amounted to 0.696 ± 0.045.
Next, GNGIRLIPPAYS: 0.725 ± 0.028; GNKMYRSREGNC: 0.6709 ± 0.003; GNTQSIEQALLV: 0.752 ± 0.028.
In the case of GPFDVLPEPNPG it was 0.6348 ± 0.0037; in that of GPFRRLRCTAFI, 0.713 ± 0.059; in that of GPGCDDDASGSV, 0.686 ± 0.013.
In the case of GPGFRSGVELVW it was 0.759 ± 0.069.
Sequence GPGGTVDLIWGS yielded a protein stability index of 0.703 ± 0.034.
GPGRIPLTSALP: the protein stability index was 0.63968 ± 0.00049.
In the case of GPHAPPPSFPAP it was 0.718 ± 0.074.
Next, GPPPPPPPASPH: 0.715 ± 0.1; GPPPPSPRPTRR: 0.723 ± 0.031.
In the case of GPPPRCKYLRAS it was 0.6348 ± 0.00079; in that of GPPTKLTLNQQK, 0.6286 ± 0.00082; in that of GPRPATTSPLPT, 0.721 ± 0.2.
The sequence GPRRLGGTSLGI had a protein stability index of 0.651 ± 0.098.
For the sequence GPRRLNAYADPF, the protein stability index worked out at 0.722 ± 0.082.
Regarding GPSPLTMPGSPS, the protein stability index was 0.683 ± 0.064.
In the case of GPSRKCPFDVVS it was 0.6654 ± 0.0021.
